The supplement of paper PMC12855868

B1: library; numbered along this chain (parent)
chain: MAAAGGARLLRAASAVLGGPAGRWLHHAGSRAGSSGLLRNRGPGGSAEASRSLSVSARARSSSEDKITVHFINRDGETLTTKGKVGDSLLDVVVENNLDIDGFGACEGTLACSTCHLIFEDHIYEKLDAITDEENDMLDLAYGLTDRSRLGCQICLTKSMDNMTVRVPETVADARQSIDVGKTS

Variants of: B1
Test: scaled log2 fold change in cell abundance, elesclomol vs control (0 = silent mean, 1 = nonsense mean) (scaled log2 ratio); higher = higher viability under elesclomol (loss of FDX1 cuproptosis function)
Details: glucose 10 mM
Method: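 Deep mutational scan of full-length human FDX1: a pooled saturation-mutagenesis ORF library (every residue 2-184 mutated to all 19 amino acids plus stop, and silent codons where available) was expressed by lentivirus in FDX1-knockout ABC1 (14 days) or HEK293T (11 days) cells grown with elesclomol (ES) or DMSO control. Variant abundance came from ORF sequencing. The log2 fold change (ES vs control, mean of duplicates) was centred on the silent-variant mean (0) and scaled to the nonsense-variant mean (1). Higher values mean greater viability under ES, i.e. loss of FDX1 function in cuproptosis.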

[1] = with ABC1 FDX1 KO, elesclomol 5 nM, 14 days
[2] = with HEK293T FDX1 KO, elesclomol 40 nM, 11 days
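Note: variant abundance is its share of total variant reads in each endpoint sample, from next-generation sequencing of the integrated ORF PCR-amplified out of genomic DNA.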

D65K
scaled log2 fold change [1]: -0.369
scaled log2 fold change [2]: -0.531

D65W
scaled log2 fold change [1]: 0.185
scaled log2 fold change [2]: 0.126

D65L
scaled log2 fold change [1]: 0.175
scaled log2 fold change [2]: -0.119

D65Y
scaled log2 fold change [1]: 0.323
scaled log2 fold change [2]: 0.288

D65N
scaled log2 fold change [1]: -0.21
scaled log2 fold change [2]: 0.98

D65A
scaled log2 fold change [1]: -0.0535
scaled log2 fold change [2]: -0.237

D65M
scaled log2 fold change [1]: -0.334
scaled log2 fold change [2]: -0.318

D65R
scaled log2 fold change [1]: -0.395
scaled log2 fold change [2]: -0.257

D65F
scaled log2 fold change [1]: -0.512
scaled log2 fold change [2]: -0.119

D65S
scaled log2 fold change [1]: -0.464
scaled log2 fold change [2]: 0.216

D65T
scaled log2 fold change [1]: -0.192

D65G
scaled log2 fold change [1]: 0.134
scaled log2 fold change [2]: -0.165

D65P
scaled log2 fold change [1]: -0.000175
scaled log2 fold change [2]: 0.99

D65C
scaled log2 fold change [1]: 0.243
scaled log2 fold change [2]: -0.327

D65E
scaled log2 fold change [1]: -0.139
scaled log2 fold change [2]: 0.087

D65V
scaled log2 fold change [1]: 0.161
scaled log2 fold change [2]: -0.27

D65Q
scaled log2 fold change [1]: 0.0546
scaled log2 fold change [2]: 0.293

D65I
scaled log2 fold change [1]: 0.277

D65H
scaled log2 fold change [1]: 0.192
scaled log2 fold change [2]: 0.0338

I67N
scaled log2 fold change [1]: 0.44
scaled log2 fold change [2]: 0.681

I67E
scaled log2 fold change [1]: 0.963
scaled log2 fold change [2]: 0.881

I67S
scaled log2 fold change [1]: 0.0219
scaled log2 fold change [2]: 0.253

I67V
scaled log2 fold change [1]: -0.37
scaled log2 fold change [2]: 0.832

I67W
scaled log2 fold change [1]: 0.658
scaled log2 fold change [2]: -0.0492

I67P
scaled log2 fold change [1]: 0.222
scaled log2 fold change [2]: -0.205

I67D
scaled log2 fold change [1]: 1.08
scaled log2 fold change [2]: 1.13

I67G
scaled log2 fold change [1]: 0.747
scaled log2 fold change [2]: 0.579

I67F
scaled log2 fold change [1]: 0.0413
scaled log2 fold change [2]: -0.46

I67H
scaled log2 fold change [1]: 0.608
scaled log2 fold change [2]: 0.601

I67R
scaled log2 fold change [1]: 0.504
scaled log2 fold change [2]: 0.363

I67Y
scaled log2 fold change [1]: 0.135
scaled log2 fold change [2]: -0.731

I67T
scaled log2 fold change [1]: 0.0745
scaled log2 fold change [2]: 0.365

I67L
scaled log2 fold change [1]: 0.113
scaled log2 fold change [2]: 0.514

I67C
scaled log2 fold change [1]: 0.2
scaled log2 fold change [2]: -0.121

I67K
scaled log2 fold change [1]: 0.691
scaled log2 fold change [2]: 0.44

I67M
scaled log2 fold change [1]: 0.35
scaled log2 fold change [2]: 0.129

I67Q
scaled log2 fold change [1]: 0.436
scaled log2 fold change [2]: 0.135

I67A
scaled log2 fold change [1]: 0.473
scaled log2 fold change [2]: 0.322

K66A
scaled log2 fold change [1]: -0.0856
scaled log2 fold change [2]: 0.00324

K66Y
scaled log2 fold change [1]: -0.0452
scaled log2 fold change [2]: -0.0505

K66T
scaled log2 fold change [1]: 0.0453
scaled log2 fold change [2]: 0.851

K66H
scaled log2 fold change [1]: 0.0524
scaled log2 fold change [2]: -0.795

K66W
scaled log2 fold change [1]: -0.5
scaled log2 fold change [2]: -0.676

K66E
scaled log2 fold change [1]: -0.297
scaled log2 fold change [2]: -0.118

K66R
scaled log2 fold change [1]: 0.114
scaled log2 fold change [2]: -0.744

K66L
scaled log2 fold change [1]: -0.00608
scaled log2 fold change [2]: -0.145

K66P
scaled log2 fold change [1]: -0.38
scaled log2 fold change [2]: -0.254

K66C
scaled log2 fold change [1]: -0.0989
scaled log2 fold change [2]: -0.0245

K66V
scaled log2 fold change [1]: 0.0478
scaled log2 fold change [2]: -0.102

K66I
scaled log2 fold change [1]: -0.298
scaled log2 fold change [2]: -0.755

K66D
scaled log2 fold change [1]: -0.097

K66G
scaled log2 fold change [1]: 0.301
scaled log2 fold change [2]: 0.245

K66N
scaled log2 fold change [1]: -0.167
scaled log2 fold change [2]: 0.199

K66Q
scaled log2 fold change [1]: -0.382
scaled log2 fold change [2]: 0.00416

K66M
scaled log2 fold change [1]: -0.188
scaled log2 fold change [2]: -0.226

K66F
scaled log2 fold change [1]: -0.158
scaled log2 fold change [2]: -0.676

K66S
scaled log2 fold change [1]: -0.679
scaled log2 fold change [2]: -0.304

S61N
scaled log2 fold change [1]: -0.737
scaled log2 fold change [2]: -0.556

S61G
scaled log2 fold change [1]: -0.405

S61R
scaled log2 fold change [1]: -0.524

S61F
scaled log2 fold change [1]: -0.102

S61M
scaled log2 fold change [1]: 0.184

S61K
scaled log2 fold change [1]: -0.0816

S61W
scaled log2 fold change [1]: -0.113
scaled log2 fold change [2]: 0.846

S61D
scaled log2 fold change [1]: 1.01
scaled log2 fold change [2]: 1.93

S61Y
scaled log2 fold change [1]: 0.603
scaled log2 fold change [2]: 1.51

S61E
scaled log2 fold change [1]: 0.468

S61Q
scaled log2 fold change [1]: 0.577

S61V
scaled log2 fold change [1]: 0.78

S61I
scaled log2 fold change [1]: -0.527

R60W
scaled log2 fold change [1]: -0.217
scaled log2 fold change [2]: 0.972

R60I
scaled log2 fold change [1]: 0.0411

R60H
scaled log2 fold change [1]: -0.288
scaled log2 fold change [2]: -0.116

R60P
scaled log2 fold change [1]: -0.332
scaled log2 fold change [2]: 0.626

R60T
scaled log2 fold change [1]: -0.956
scaled log2 fold change [2]: -0.542

R60F
scaled log2 fold change [1]: 0.0888
scaled log2 fold change [2]: -0.201

R60K
scaled log2 fold change [1]: -0.27

R60M
scaled log2 fold change [1]: -0.213
scaled log2 fold change [2]: 0.72

R60V
scaled log2 fold change [1]: 0.116

R60L
scaled log2 fold change [1]: 0.042
scaled log2 fold change [2]: -0.384

R60S
scaled log2 fold change [1]: 0.275
scaled log2 fold change [2]: 0.216

R60Y
scaled log2 fold change [1]: 0.215
scaled log2 fold change [2]: 0.0482

R60G
scaled log2 fold change [1]: -0.278
scaled log2 fold change [2]: -0.224

R60N
scaled log2 fold change [1]: -0.096
scaled log2 fold change [2]: 0.128

R60Q
scaled log2 fold change [1]: -0.0931
scaled log2 fold change [2]: -0.217

S62F
scaled log2 fold change [1]: 0.075
scaled log2 fold change [2]: 0.425

S62I
scaled log2 fold change [1]: 0.0619
scaled log2 fold change [2]: -0.0402

S62A
scaled log2 fold change [1]: -0.86
scaled log2 fold change [2]: -0.876

S62G
scaled log2 fold change [1]: -0.00606
scaled log2 fold change [2]: 0.141

S62L
scaled log2 fold change [1]: 0.0177
scaled log2 fold change [2]: 0.0918

S62C
scaled log2 fold change [1]: -0.366
scaled log2 fold change [2]: -0.138

S62H
scaled log2 fold change [1]: -0.223
scaled log2 fold change [2]: 0.729

S62M
scaled log2 fold change [1]: 0.0792

S62E
scaled log2 fold change [1]: 0.0386

S62N
scaled log2 fold change [1]: 0.0847
scaled log2 fold change [2]: -0.479

S62Y
scaled log2 fold change [1]: -0.427

S62D
scaled log2 fold change [1]: 0.269
scaled log2 fold change [2]: 1.05

S62K
scaled log2 fold change [1]: 0.104
scaled log2 fold change [2]: 1.13

S62W
scaled log2 fold change [1]: -0.132

S62R
scaled log2 fold change [1]: -0.893
scaled log2 fold change [2]: 0.128

S62T
scaled log2 fold change [1]: -0.0712
scaled log2 fold change [2]: -0.205

S62Q
scaled log2 fold change [1]: 0.0996
scaled log2 fold change [2]: 0.145

N73E
scaled log2 fold change [1]: 0.311
scaled log2 fold change [2]: 0.823

N73F
scaled log2 fold change [1]: 0.238
scaled log2 fold change [2]: -0.334

N73C
scaled log2 fold change [1]: -0.441
scaled log2 fold change [2]: -0.308

N73A
scaled log2 fold change [1]: 0.491
scaled log2 fold change [2]: -0.233

N73D
scaled log2 fold change [1]: 0.282
scaled log2 fold change [2]: -0.23

T68P
scaled log2 fold change [1]: 0.317
scaled log2 fold change [2]: 0.911

T68K
scaled log2 fold change [1]: -0.155
scaled log2 fold change [2]: -0.329

T68C
scaled log2 fold change [1]: 0.309
scaled log2 fold change [2]: -0.148

T68Q
scaled log2 fold change [1]: 0.0568
scaled log2 fold change [2]: -0.103

T68H
scaled log2 fold change [1]: 0.349
scaled log2 fold change [2]: -0.699

T68N
scaled log2 fold change [1]: 0.00412
scaled log2 fold change [2]: -0.202

T68V
scaled log2 fold change [1]: 0.247
scaled log2 fold change [2]: 0.769

T68W
scaled log2 fold change [1]: 0.0579
scaled log2 fold change [2]: 0.896

T68G
scaled log2 fold change [1]: -0.0825
scaled log2 fold change [2]: 0.801

T68L
scaled log2 fold change [1]: 0.248
scaled log2 fold change [2]: 0.885

T68I
scaled log2 fold change [1]: 0.0915
scaled log2 fold change [2]: 0.0716

T68E
scaled log2 fold change [1]: -0.318
scaled log2 fold change [2]: -0.497

T68S
scaled log2 fold change [1]: -0.0825
scaled log2 fold change [2]: 0.833

T68A
scaled log2 fold change [1]: -0.0418
scaled log2 fold change [2]: -0.389

T68R
scaled log2 fold change [1]: -0.0852
scaled log2 fold change [2]: -0.377

T68F
scaled log2 fold change [1]: -0.000655
scaled log2 fold change [2]: 0.914
